Test results: the supplement of paper PMC7125110
± gives the standard error. Fewer inactive variants are shown than the library holds.

B1: glmS ribozyme (parent)
chain: AUAAAAGCGCCAGAACUACAGAAAUGUAGUUGACGAGGAGGAGGUUUAUCGAAUUUUCGGCGGAUGCCUCCAAA

Assays:
Conditions in all cases: with glucosamine-6-phosphate
glucosamine-6-phosphate [1] = variants of: B1; assay: self-cleavage kobs at 640 uM GlcN6P; higher = faster cleavage; RNA array
In short: (§1)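 kobs was derived by fitting per-tile medians to one- or two-exponential decays after normalising signals to baseline and to non-cleaving reference variants. Those signals came from barcoded ribozyme variants transcribed in situ by E. coli RNA polymerase on sequenced MiSeq chips, followed through a hybridised Cy3 probe at 37 °C and imaged over ~14 h. Glucosamine-6-phosphate (40 μM to 10 mM) in HEPES/KCl/Mg(OAc)2 buffer was flowed in. Weighted Michaelis–Menten fits across concentrations then gave kcat and KM.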

glucosamine-6-phosphate [2] = variants of: B1; assay: self-cleavage kobs at 2500 uM GlcN6P; higher = faster cleavage; RNA array
In short: as §1

glucosamine-6-phosphate [3] = variants of: B1; assay: self-cleavage kobs at 10000 uM GlcN6P; higher = faster cleavage; RNA array
In short: as §1

Variant	self-cleavage kobs at 640 uM GlcN6P (glucosamine-6-phosphate [1]) [s⁻¹]	self-cleavage kobs at 2500 uM GlcN6P (glucosamine-6-phosphate [2]) [s⁻¹]	self-cleavage kobs at 10000 uM GlcN6P (glucosamine-6-phosphate [3]) [s⁻¹]
C34G A39C U46A	< 1e-05		
A6U C8A U31G	< 1e-05	< 1e-05	
U30A U31C A39U	0.00038 ± 0.00011	0.000577 ± 0.00018	
G9C A15C A64C C68G	< 1e-05		
C10U C58G C67A	0.000107 ± 3.8e-05		
G60U G62A C67U	< 1e-05		
G7C C10A G13A G37A U45A	< 1e-05	< 1e-05	
G43A U47A A53C G59C	< 1e-05	< 1e-05	
C16G G44U G51U C61U	< 1e-05	< 1e-05	
C11U A53U C70G	0.000189 ± 5.3e-05		
C8G A36G A39U G43U	< 1e-05	< 1e-05	
G35C G44C U45C A48G	< 1e-05	< 1e-05	
C50U U56G C70G	0.000278 ± 8e-05	0.000251 ± 5.8e-05	
A14C A15C A39U G40U U49C	< 1e-05		
C8A U30C G51U	< 1e-05		
C16A A36U A42G A48G G51U U54G	< 1e-05	< 1e-05	
A39U U46G C50U U54C	< 1e-05		
A39G G40U C50U	< 1e-05	< 1e-05	< 1e-05

Variant	self-cleavage kobs at 640 uM GlcN6P (glucosamine-6-phosphate [1]) [s⁻¹]	self-cleavage kobs at 2500 uM GlcN6P (glucosamine-6-phosphate [2]) [s⁻¹]	self-cleavage kobs at 10000 uM GlcN6P (glucosamine-6-phosphate [3]) [s⁻¹]
C10A C11G G35C G44C	< 1e-05	< 1e-05	
C8G G43A C67A	< 1e-05		
C16G C34G A42C G43A	< 1e-05		
C11U G38A C67G	7.1e-05 ± 3.3e-05		
A14U A15C A33U U49C C50G U69A	0.0012 ± 0.00039	0.000218 ± 9.1e-05	
U31A C58U U69G	0.000109 ± 4.2e-05	7.72e-05 ± 2.2e-05	
G35A G38U A42C U55C	< 1e-05		
G9U G32C C34G C58U C68G	0.000182 ± 7.9e-05		
U47A G60C U69C	0.00785 ± 0.0036		
A6G C61G C71G	7.45e-05 ± 2.4e-05		
C8A C11U A36G	< 1e-05	< 1e-05	
A36U A53G C58U C67G C70A	0.000184 ± 4.8e-05	0.00115 ± 0.00026	
G29A U47G A53G C61U U65A	< 1e-05		
C11A G44U A48G C61A	< 1e-05		
G41A U54A	0.000113 ± 2.9e-05	0.000311 ± 8.8e-05	0.000101 ± 2.1e-05
C11A A53C G66U	< 1e-05		
C8U C16G A52U U65G G66A	< 1e-05	< 1e-05	
